The supplement of paper PMC6757056
± gives the standard deviation of the averaged measurements.

B1: library; a variant is named by its letters at N, in order (parent)
chain: GCUGUCACCGGAAUACCAGCAUCGUCUUGAUGCCCUUGGAAGUCCGGUCUGAUGAGUCCNNNNNGGACGAAACAGC

Assays:
theophylline [1] = variants of: B1; experiment: FACS-Seq fitted mean relative fluorescence mCherry/BFP without ligand (log10 relative fluorescence); higher = higher reporter protein expression; conditions: HEK293T, ligand present: no
Description: (§1)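 Hammerhead (sTRSV) ribozyme switch libraries with a ligand aptamer grafted on stem I and a randomized N4-6 loop II, cloned into the 3' UTR of mCherry and transiently transfected into HEK293T cells; RNA-Seq 72 h post transfection with ligand added 1 h before transfection; RNA read count / plasmid DNA read count normalized to the non-cleaving sTRSVctl (x100), log10; sequences with >100 DNA reads. FACS-Seq: lentiviral library sorted into 6 bins after 48 h ligand, log-normal fit mean of mCherry/BFP scaled to controls. Printed sequences are partial switch sequences.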

theophylline [2] = variants of: B1; experiment: normalized RNA/DNA level with ligand (relative to sTRSVctl = 100) (log10 (% of sTRSVctl)); higher = less ribozyme self-cleavage, higher mRNA level; conditions: ligand concentration (+) RNA-Seq: 5 mM, HEK293T, reporter: mCherry (pCS4076), ligand present: yes
Description: as §1

theophylline [3] = variants of: B1; experiment: normalized RNA/DNA level without ligand (relative to sTRSVctl = 100) (log10 (% of sTRSVctl)); higher = less ribozyme self-cleavage, higher mRNA level; conditions: HEK293T, reporter: mCherry (pCS4076), ligand present: no
Description: as §1

theophylline [4] = variants of: B1; experiment: FACS-Seq fitted mean relative fluorescence mCherry/BFP with ligand (log10 relative fluorescence); ligand concentration (+) FACS-Seq: 1 mM; higher = higher reporter protein expression; conditions: HEK293T, ligand present: yes
Description: as §1

Variant	FACS-Seq fitted mean (log10) (theophylline [1])	normalized RNA/DNA level with ligand (log10) (theophylline [2])	normalized RNA/DNA level without ligand (log10) (theophylline [3])	FACS-Seq fitted mean (log10) (theophylline [4])
CAUAC	0.865 ± 0.024	1.917 ± 0.0021	1.8 ± 0.092	0.996 ± 0.019
CAUAA	-0.291 ± 0.12	1.88 ± 0.0023	1.06 ± 0.47	0.446 ± 0.011
CAUAU	0.397 ± 0.059	2.02 ± 0.043	1.76 ± 0.21	0.362 ± 0.069
GAUAU	0.781 ± 0.093	1.946 ± 0.0078	1.75 ± 0.039	0.8102 ± 0.0061
AAGGU	0.228 ± 0.0068	1.94 ± 0.047	1.72 ± 0.044	0.445 ± 0.067
UCCUG	0.994 ± 0.063	2.02 ± 0.1	1.99 ± 0.037	0.905 ± 0.0097
UCCUA	0.918 ± 0.078	2 ± 0.13	2.007 ± 0.0046	0.92 ± 0.058
UCCUC	0.414 ± 0.042	2.03 ± 0.022	2.022 ± 0.015	0.566 ± 0.064
ACCAU	0.574 ± 0.037	1.993 ± 0.011	1.86 ± 0.02	0.605 ± 0.068
ACCAA	0.759 ± 0.043	2.02 ± 0.082	1.74 ± 0.069	0.832 ± 0.016
ACCAC	1.02 ± 0.038	2 ± 0.055	2.006 ± 0.014	0.984 ± 0.066
ACCAG	0.9579 ± 0.0021	1.93 ± 0.028	1.83 ± 0.059	1.02 ± 0.047
AAUAU	-0.0622 ± 0.051	1.99 ± 0.083	1.75 ± 0.024	0.253 ± 0.077
AAUAG	0.929 ± 0.015	1.965 ± 0.015	1.85 ± 0.039	0.894 ± 0.16
AAUAC	0.997 ± 0.065	1.95 ± 0.045	1.85 ± 0.084	1.061 ± 0.0058
AAUAA	-0.00162 ± 0.092	1.88 ± 0.051	1.33 ± 0.021	0.509 ± 0.039
CAUCC	0.98 ± 0.04	2.04 ± 0.045	2 ± 0.12	1.162 ± 0.0037
GAGUU	0.55 ± 0.013	1.89 ± 0.025	1.6731 ± 0.00032	0.742 ± 0.063
CCAAC	0.72 ± 0.09	1.952 ± 0.012	1.92 ± 0.069	0.767 ± 0.018
CCAAU	0.688 ± 0.1	1.95 ± 0.058	1.64 ± 0.14	0.7987 ± 0.0017
CCAAA	0.24 ± 0.12	1.97 ± 0.051	1.48 ± 0.06	0.619 ± 0.23
UAGUA	0.245 ± 0.011	1.87 ± 0.019	1.45 ± 0.074	0.503 ± 0.008
UAGUC	0.521 ± 0.015	1.925 ± 0.01	1.88 ± 0.067	0.4472 ± 0.0043
ACAAU	0.476 ± 0.2	1.99 ± 0.077	1.75 ± 0.096	0.44 ± 0.037

Variant	FACS-Seq fitted mean (log10) (theophylline [1])	normalized RNA/DNA level with ligand (log10) (theophylline [2])	normalized RNA/DNA level without ligand (log10) (theophylline [3])	FACS-Seq fitted mean (log10) (theophylline [4])
ACAAA	0.425 ± 0.062	2 ± 0.045	1.44 ± 0.11	0.7048 ± 0.0042
ACAAC	0.304 ± 0.051	1.97 ± 0.051	1.86 ± 0.038	0.206 ± 0.062
ACAAG	0.857 ± 0.14	1.99 ± 0.033	1.81 ± 0.12	0.8889 ± 0.0072
UCAUG	0.358 ± 0.073	1.9 ± 0.12	1.89 ± 0.091	0.349 ± 0.033
UCAUU	0.822 ± 0.046	2.03 ± 0.045	1.815 ± 0.0057	0.906 ± 0.071
CCAUA	0.864 ± 0.14	1.95 ± 0.036	1.5 ± 0.14	1.06 ± 0.12
CCAUU	0.558 ± 0.021	1.983 ± 0.0031	1.75 ± 0.049	0.688 ± 0.011
CAUUA	0.275 ± 0.06	1.851 ± 0.011	1.22 ± 0.14	0.761 ± 0.12
CAUUU	0.805 ± 0.079	2.1059 ± 0.00056	1.74 ± 0.12	0.945 ± 0.13
GAUUG	0.498 ± 0.059	1.98 ± 0.1	1.75 ± 0.12	0.711 ± 0.017
GAUUU	0.1728 ± 0.00021	2.05 ± 0.067	1.78 ± 0.12	0.28 ± 0.031
UCCCU	0.877 ± 0.032	2.08 ± 0.12	1.97 ± 0.026	1.03 ± 0.11
UCCCG	1.07 ± 0.16	2.027 ± 0.0081	2.008 ± 0.0028	1.055 ± 0.0097
UCCCC	1.11 ± 0.13	2.005 ± 0.019	2.01 ± 0.053	1.06 ± 0.032
GAUCU	0.704 ± 0.15	1.98 ± 0.055	1.85 ± 0.03	0.81 ± 0.17
GAUCG	1.12 ± 0.081	1.9 ± 0.031	1.78 ± 0.05	1.17 ± 0.094
UCAGA	0.377 ± 0.081	1.96 ± 0.099	1.55 ± 0.13	0.6274 ± 0.0049
UCAGU	0.741 ± 0.036	2.011 ± 0.018	1.875 ± 0.018	0.752 ± 0.097
AAUGG	0.773 ± 0.076	2.06 ± 0.078	1.73 ± 0.094	0.962 ± 0.016
AAUGU	0.7078 ± 0.0026	1.99 ± 0.056	1.77 ± 0.23	0.788 ± 0.011
AAUGA	0.467 ± 0.024	1.964 ± 0.0034	1.46 ± 0.08	0.691 ± 0.086
AAUGC	0.537 ± 0.0095	2 ± 0.06	1.89 ± 0.025	0.692 ± 0.11
ACCCG	0.917 ± 0.11	2 ± 0.012	1.94 ± 0.12	0.973 ± 0.031
ACCCA	0.9 ± 0.021	2.02 ± 0.044	1.93 ± 0.066	0.869 ± 0.033

Variant	FACS-Seq fitted mean (log10) (theophylline [1])	normalized RNA/DNA level with ligand (log10) (theophylline [2])	normalized RNA/DNA level without ligand (log10) (theophylline [3])	FACS-Seq fitted mean (log10) (theophylline [4])
ACCCU	0.718 ± 0.011	2.023 ± 0.016	1.93 ± 0.091	0.587 ± 0.09
ACCCC	0.753 ± 0.1	2.037 ± 0.0066	1.99 ± 0.053	0.657 ± 0.08
UCCAG	0.956 ± 0.042	2.01 ± 0.07	1.92 ± 0.1	1.07 ± 0.13
UCCAC	0.712 ± 0.067	2.05 ± 0.04	1.95 ± 0.12	0.737 ± 0.036
UCCAU	1.01 ± 0.016	2.012 ± 0.019	1.96 ± 0.054	1.05 ± 0.11
UCCAA	0.973 ± 0.14	2.04 ± 0.078	1.84 ± 0.09	0.912 ± 0.053
AAUCC	0.844 ± 0.012	2.04 ± 0.052	1.95 ± 0.07	0.808 ± 0.05
AAUCU	0.634 ± 0.065	1.94 ± 0.026	1.87 ± 0.026	0.57 ± 0.049
AAUCG	0.941 ± 0.16	2.06 ± 0.06	1.87 ± 0.1	0.953 ± 0.04
AAUCA	0.1911 ± 0.00077	1.9026 ± 0.0018	1.7 ± 0.029	0.221 ± 0.08
CAGUC	0.691 ± 0.085	1.94 ± 0.086	1.86 ± 0.14	0.68 ± 0.13
CAGUA	0.206 ± 0.0074	1.95 ± 0.15	1.27 ± 0.084	0.675 ± 0.018
CAGUU	0.491 ± 0.036	2.06 ± 0.055	1.6287 ± 0.00046	0.76 ± 0.037
CAUGA	0.56151 ± 0.00013	2.03 ± 0.064	1.69 ± 0.1	0.619 ± 0.12
CAUGC	0.705 ± 0.09	2.03 ± 0.085	1.98 ± 0.071	0.633 ± 0.01
CAUGU	0.628 ± 0.042	1.98 ± 0.033	1.96 ± 0.052	0.704 ± 0.062
CCAGA	0.765 ± 0.044	1.95 ± 0.15	1.86 ± 0.098	0.758 ± 0.085
CCAGC	0.9205 ± 0.0079	1.96 ± 0.056	1.994 ± 0.008	0.864 ± 0.14
CCAGU	0.937 ± 0.067	1.974 ± 0.0042	1.9 ± 0.12	0.929 ± 0.058
UAUUG	0.752 ± 0.025	2.07 ± 0.029	1.921 ± 0.017	0.768 ± 0.032
UAUUU	0.892 ± 0.098	1.995 ± 0.0037	1.94 ± 0.032	0.906 ± 0.048
UAUUC	0.679 ± 0.022	1.99 ± 0.089	1.94 ± 0.11	0.6994 ± 0.0049
GAUGG	-0.543 ± 0.056	2 ± 0.062	1.8 ± 0.022	-0.332 ± 0.0071
